Changes are numbered by the printed parent chain.
B1: 9H11A antibody-drug conjugate with PBD dimer (DAR=2) (antibody, V domains shown)
VH: QVQLQQPGAELVKPGASVKLSCKASGYTFTSYWMHWVKLRPGQGFEWIGEIIPSNGVTNYNEKFKRKATLTVDKSSSTAYMQLSSLTSEDSAVYYCTIRLRYALDYWGQGTSVTVSA
VL: DIQMTQTTSSLSASLGDRVTISCRASQDISNFLNWYQQKPDGTVKLLIYYTSRLHSGVPSRFSGSGSGTDYSLTISNLEQEDIATYFCQQGNTLPPTFGGGTKLEIK
modifications: PBD dimer through amino-PEG-azide / DBCO-val-ala linker on Q295 (Kabat EU numbering) of each heavy chain; deglycosylated with PNGaseF
B2: 9H11B antibody-drug conjugate with PBD dimer (DAR=2) (antibody, V domains shown)
VH: B1 VH
VL: DIVMTQSQKFMSTSVGDRVSVTCKASQNVGTNVAWYQQKPGQSPKALIYSTSFRYSGVPDRFTGSGSGTDFTLTISNVQSEDLAEYFCQQYNSYPFTFGSGTKLEIK
modifications: PBD dimer through amino-PEG-azide / DBCO-val-ala linker on Q295 (Kabat EU numbering) of each heavy chain; deglycosylated with PNGaseF
B3: 17E1 antibody-drug conjugate with PBD dimer (DAR=2) (antibody, V domains shown)
VH: QVQLQQPGSVLVRPGASVKLSCKASGYTFTSSWMHWAKQRPGQGLEWIGHIHPNSGISNYNEKFKGKATLTVDTSSSTAYVDLSSLTSEDSAVYYCSRGGRFDDWGAGTTVTVSS
VL: DIQMTQSPSSLSASLGERVSLTCRASQDIGSSLNWLQQEPDGTIKRLIYATSRLDSGVPKRFSGSRSGSDYSLTISSLESEDFVDYYCLQYASSPWTFGGGTKLEIK
modifications: PBD dimer through amino-PEG-azide / DBCO-val-ala linker on Q295 (Kabat EU numbering) of each heavy chain; deglycosylated with PNGaseF
B4: 8B6A (antibody, V domains shown)
VH: QVQLQQPGSELVRPGASVKLSCKASGYTFTSYWMHWVKQRPGQGLEWIGTIYPGSDITNYDEKFKNKATLTVDTSSSTAYMQLSSLTSEDSAVYYCTRDGRFANWGQGTLVTVSA
VL: EIVLTQSPAITAASLGQKVTITCSASSSVSYMHWYQQKSGTSPKPWIYEISKLASGVPARFSGSGSGTSYSLTISSMEAEDAAIYYCQQWNLPLTFGAGTKLELK
notes: Mouse variable domains; light chain is kappa (VK); also called CHG1-M-H46 8B6-A
B5: 8B6B (antibody, V domains shown)
VH: B4 VH
VL: B3 VL with D1E, R53S, W96Y
notes: Same heavy chain variable domain as 8B6A with a different light chain; also called CHG1-M-H46 8B6-B
B6: 9H11A (antibody, V domains shown)
VH: B1 VH
VL: B1 VL
notes: also called CHG1-M-H46 9H11-A
B7: 9H11B (antibody, V domains shown)
VH: B1 VH
VL: B2 VL
notes: Same heavy chain variable domain as 9H11A with a different light chain; also called CHG1-M-H46 9H11-B
B8: 17E1 (antibody, V domains shown)
VH: B3 VH
VL: B3 VL
notes: also called CHG1-M-H46 17E1

Tests used:
[1] = target: T1, human NKp46 expressed on cells (human, UniProt O76036 22-304); assay: cell-based or functional assay
T1 sequence (O76036 22-304 Q82K limits assumed): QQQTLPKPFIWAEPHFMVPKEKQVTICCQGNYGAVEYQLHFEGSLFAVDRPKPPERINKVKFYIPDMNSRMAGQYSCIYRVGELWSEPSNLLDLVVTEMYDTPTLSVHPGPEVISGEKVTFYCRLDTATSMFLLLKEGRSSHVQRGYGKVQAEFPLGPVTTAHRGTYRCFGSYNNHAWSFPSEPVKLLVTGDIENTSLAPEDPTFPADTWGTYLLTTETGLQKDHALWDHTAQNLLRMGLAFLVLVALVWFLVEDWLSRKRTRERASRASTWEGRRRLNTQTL

[2] = target: T2, Human 6xHis tagged NKp46 recombinant protein (human, UniProt O76036 22-255, limits assumed); assay: SPR Biacore T100, antibody captured on Protein-G chip, soluble NKp46-His 12.5-200 nM, single cycle kinetics, 1:1 model, monovalent
T2 construct: also called NKp46-His; soluble NKp46-His recombinant proteins; not shown: 6xHis tag
T2 sequence (O76036 22-255 Q82K limits assumed): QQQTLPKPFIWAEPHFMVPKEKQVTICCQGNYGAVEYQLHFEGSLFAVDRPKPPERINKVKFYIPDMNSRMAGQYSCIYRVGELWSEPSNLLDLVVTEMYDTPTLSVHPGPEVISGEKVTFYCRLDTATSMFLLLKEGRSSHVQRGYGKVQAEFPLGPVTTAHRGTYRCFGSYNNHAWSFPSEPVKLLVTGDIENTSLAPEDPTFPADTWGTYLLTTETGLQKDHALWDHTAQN
Protocol: SPR measurements were performed on a Biacore T100 apparatus (Biacore GE Healthcare) at 25° C. In all Biacore experiments HBS-EP+ (Biacore GE Healthcare) and NaOH 10 mM NaCl 500 mM served as running buffer and regeneration buffer respectively. Sensorgrams were analyzed with Biacore T100 Evaluation software. Protein-G was purchase from GE Healthcare and Anti-His antibody from QIAGEN. Human 6×His tagged NKp46 recombinant proteins (NKp46-His) were cloned, produced and purified at Innate Pharma.
Affinity study has been performed using the Protein-G chip. Monovalent affinity study was done following the Single Cycle Kinetic (SCK) protocol. Five serial dilutions of soluble NKp46-His recombinant proteins ranging from 12.5 to 200 nM were injected over the captured Anti-NKp46 anti bodies (without regeneration) and allowed to dissociate for 10 min before regeneration. For each antibody, the entire sensorgram was fitted using the 1:1 SCK binding model.

[3] = target: T1, human NKp46 expressed on cells; assay: flow cytometry on Raji-hNKp46 cells, dose range, anti-human IgG1-PE detection
Protocol: (§1) Flow cytometry: Cells were harvested and stained in PBS 1×/BSA 0.2%/EDTA 2 mM buffer during 30 minutes at 4° C. using a dose-range of the anti-NKp46 mAbs. After two washes in staining buffer, cells incubated with anti-NKp46 antibodies were stained for 30 min at 4° C. with mouse anti-human IgG1-PE monoclonal antibodies from Miltenyi (dil. 1/10). After two washes, the stainings were acquired on the HTFC Intellicyt device and analyzed using the ForeCyt software.

[4] = target: T3, Macaca fascicularis NKp46 expressed on CHO cells (Macaca fascicularis, UniProt Q95JB9 22-306); assay: flow cytometry on CHO cells transfected with cyno NKp46, dose range, anti-human IgG1-PE detection
T3 construct: Cloned from Macaca fascicularis cDNA and transfected into the CHO cell line; also called cyno NKp46; CHO-cynoNKp46
T3 sequence (Q95JB9 22-306 limits assumed): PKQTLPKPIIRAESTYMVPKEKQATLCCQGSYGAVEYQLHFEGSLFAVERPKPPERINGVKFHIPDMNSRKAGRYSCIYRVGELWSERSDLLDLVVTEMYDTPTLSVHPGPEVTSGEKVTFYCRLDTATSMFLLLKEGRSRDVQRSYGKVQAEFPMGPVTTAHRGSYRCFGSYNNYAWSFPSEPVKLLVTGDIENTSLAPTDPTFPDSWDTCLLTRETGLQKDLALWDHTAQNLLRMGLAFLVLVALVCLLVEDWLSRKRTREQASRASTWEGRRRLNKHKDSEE
Protocol: The antibodies (including 8B6A, 8B6B, 9H11A, 9H11B and 17E1) were assessed for binding to Macaca fascicularis NKp46 (cyno NKp46) protein. The sequence of cyno NKp46 (shown below) was cloned from Macaca fascicularis cDNA and transfected into the CHO cell line. The binding of CHG1-M-H46 to CHO-cynoNKp46 was analyzed by flow cytometry.
as §1, with “cytometry: CHO cells” for “cytometry: Cells”, “Miltenyi (dil” for “Miltenyi (dil.”, “washes,” for “washes, the”, “on a” for “on the”, “Intellicyt” for “Intellicyt device”, “using” for “using the”

Row | Binder | IC50 for cytotoxicity towards SNK6 cells (Cell Titer Glo, 72 h) [1] | Kd [2] | koff [2] | kon [2] | EC50 [3] | EC50 [4]
1 | B1 | 0.02 ng/mL |  |  |  |  | 
2 | B2 | 0.01 ng/mL |  |  |  |  | 
3 | B3 | 0.01 ng/mL |  |  |  |  | 
4 | B4 |  | 4.08 nM | 0.00109 s⁻¹ | 267000 M⁻¹ s⁻¹ | 148 ng/mL | 29 ng/mL
5 | B5 |  | 4.07 nM | 0.0011 s⁻¹ | 271000 M⁻¹ s⁻¹ | 76 ng/mL | 28 ng/mL
6 | B6 |  | 0.728 nM | 0.000199 s⁻¹ | 273000 M⁻¹ s⁻¹ | 51 ng/mL | 26 ng/mL
7 | B7 |  | 0.892 nM | 0.000253 s⁻¹ | 283000 M⁻¹ s⁻¹ | 124 ng/mL | 25 ng/mL
8 | B8 |  |  |  |  | 55 ng/mL | 59 ng/mL

— patent US20190367609A1 (INNATE PHARMA, published 2019)
